Consider nine molecules from article PMC1373692.

In data set [1] the target is T1, RecJ (native wild-type) (Escherichia coli, UniProt P21893 1-577).
T1 sequence: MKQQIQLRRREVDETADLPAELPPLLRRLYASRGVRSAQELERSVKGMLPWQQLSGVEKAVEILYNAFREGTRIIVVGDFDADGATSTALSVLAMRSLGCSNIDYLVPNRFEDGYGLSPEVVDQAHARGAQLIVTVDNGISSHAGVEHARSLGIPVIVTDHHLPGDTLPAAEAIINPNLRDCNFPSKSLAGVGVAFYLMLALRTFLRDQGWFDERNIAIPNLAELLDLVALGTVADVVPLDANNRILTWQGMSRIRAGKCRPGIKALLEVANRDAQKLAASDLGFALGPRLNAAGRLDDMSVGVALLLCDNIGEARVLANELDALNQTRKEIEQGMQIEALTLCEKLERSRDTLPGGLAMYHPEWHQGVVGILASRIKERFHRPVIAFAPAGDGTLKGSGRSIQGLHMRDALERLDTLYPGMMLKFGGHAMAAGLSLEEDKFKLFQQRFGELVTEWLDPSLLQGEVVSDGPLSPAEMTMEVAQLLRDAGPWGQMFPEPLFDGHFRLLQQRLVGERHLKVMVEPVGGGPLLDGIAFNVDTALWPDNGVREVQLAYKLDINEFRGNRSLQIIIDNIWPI
The data set is described as follows: EMSA.

For data set [2], the target named is T1, RecJ (native wild-type). The data set is described as follows: EMSA. This is another data set of the same source. (In general: In EMSA bound probe runs differently from free probe, usually more slowly.)
In data set [3] the target is T1, RecJ (native wild-type). The data set is described as follows: EMSA. The source holds these as a separate data set.
Data set [4] deals with SSB (UniProt P0AGE0 2-178). Briefly: EMSA.
Chain of SSB (P0AGE0 2-178): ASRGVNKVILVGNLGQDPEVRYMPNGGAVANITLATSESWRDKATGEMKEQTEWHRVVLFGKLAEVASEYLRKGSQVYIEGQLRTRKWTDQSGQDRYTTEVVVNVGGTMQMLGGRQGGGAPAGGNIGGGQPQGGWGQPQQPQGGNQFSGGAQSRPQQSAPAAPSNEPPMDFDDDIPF
The target of data set [5] is RecJ (native wild-type);SSB (Escherichia coli;Escherichia coli?, UniProt P21893;P0AGE0 1-577;2-178, |). The data set is described as follows: EMSA, supershift.
Chain of RecJ (native wild-type);SSB (P0AGE0 2-178, one chain of several): as the sequence (P0AGE0 2-178) above
Data set [6] has as its target T1, RecJ (native wild-type). Briefly: EMSA. This is another data set of the same source.
Data set [7] has as its target T2, RecJf (MBP-RecJ fusion) (UniProt P21893 1-577).
T2 sequence: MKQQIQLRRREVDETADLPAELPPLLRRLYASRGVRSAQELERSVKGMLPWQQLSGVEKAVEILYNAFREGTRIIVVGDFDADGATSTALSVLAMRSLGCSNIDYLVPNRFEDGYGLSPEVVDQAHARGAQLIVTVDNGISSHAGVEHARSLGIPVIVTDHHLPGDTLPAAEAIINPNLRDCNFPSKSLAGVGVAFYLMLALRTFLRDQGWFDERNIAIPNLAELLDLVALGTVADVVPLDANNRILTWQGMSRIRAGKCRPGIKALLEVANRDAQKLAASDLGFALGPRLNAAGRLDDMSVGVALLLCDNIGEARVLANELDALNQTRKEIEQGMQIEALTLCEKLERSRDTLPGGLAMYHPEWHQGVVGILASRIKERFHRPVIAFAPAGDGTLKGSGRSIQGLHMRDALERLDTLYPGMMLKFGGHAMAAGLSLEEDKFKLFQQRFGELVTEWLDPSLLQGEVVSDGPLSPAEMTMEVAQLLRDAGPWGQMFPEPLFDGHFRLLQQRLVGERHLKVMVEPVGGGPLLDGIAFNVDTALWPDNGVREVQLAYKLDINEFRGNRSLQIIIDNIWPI
The data set is described as follows: EMSA.

Read-outs that look alike come from different tables or passages of the source.

B1: A/C 10 nt 5' tail (dsDNA)
DNA 1: GCCCAGGTGGCAGGCCCTAGGGTGGAGGGGAGGCCGCCGGCATGGGGACGCGATGGGCGGAGGCG
DNA 2: CGCCTCCGCCCATCGCGTCCCCATGCCGGCGGCCTCCCCTCCACCCTAGGGCCTG
modifications: 5' phosphate on A from labeling
For B1, in data set [1], the Kd – broadly, the concentration at which binding is half-saturated – is 9.5 nM.

B2: A/D 4 nt 5' tail (dsDNA)
DNA 1: GCCCAGGTGGCAGGCCCTAGGGTGGAGGGGAGGCCGCCGGCATGGGGACGCGATGGGCGGAGGCG
DNA 2: CGCCTCCGCCCATCGCGTCCCCATGCCGGCGGCCTCCCCTCCACCCTAGGGCCTGCCACCT
modifications: 5' phosphate on A from labeling
Consider B2, for which the binding result in data set [2] is recorded as “no binding”.

B3: A 8 nt 5' tail (dsDNA)
DNA 1: GCCCAGGTGGCAGGCCCTAGGGTGGAGGGGAGGCCGCCGGCATGGGGACGCGATGGGCGGAGGCG
DNA 2: CGCCTCCGCCCATCGCGTCCCCATGCCGGCGGCCTCCCCTCCACCCTAGGGCCTGCC
modifications: 5' phosphate on A from labeling
Regarding B3, the binding result in data set [3] is recorded as “binds”.

B4: oligonucleotide A (65mer) (ssDNA)
DNA: GCCCAGGTGGCAGGCCCTAGGGTGGAGGGGAGGCCGCCGGCATGGGGACGCGATGGGCGGAGGCG
modifications: 5' phosphate from labeling
In the case of B4, the binding result in data set [4], in data set [5], in data set [6] and in data set [7] was “binds” each time.

B5: A/E 65 bp duplex (dsDNA)
DNA 1: GCCCAGGTGGCAGGCCCTAGGGTGGAGGGGAGGCCGCCGGCATGGGGACGCGATGGGCGGAGGCG
DNA 2: CGCCTCCGCCCATCGCGTCCCCATGCCGGCGGCCTCCCCTCCACCCTAGGGCCTGCCACCTGGGC
modifications: 5' phosphate on A from labeling
Consider B5, for which, in data set [2], the binding result is “no binding”.

B6: A 7 nt 5' tail (dsDNA)
DNA 1: GCCCAGGTGGCAGGCCCTAGGGTGGAGGGGAGGCCGCCGGCATGGGGACGCGATGGGCGGAGGCG
DNA 2: CGCCTCCGCCCATCGCGTCCCCATGCCGGCGGCCTCCCCTCCACCCTAGGGCCTGCCA
modifications: 5' phosphate on A from labeling
In the case of B6, in data set [3], the binding result is reported as “binds”.

B7: A/B 20 nt 5' tail (dsDNA)
DNA 1: GCCCAGGTGGCAGGCCCTAGGGTGGAGGGGAGGCCGCCGGCATGGGGACGCGATGGGCGGAGGCG
DNA 2: CGCCTCCGCCCATCGCGTCCCCATGCCGGCGGCCTCCCCTCCACC
modifications: 5' phosphate on A from labeling
Molecule B7 had a Kd in data set [1] of 33 nM.

B8: A 9 nt 5' tail (dsDNA)
DNA 1: GCCCAGGTGGCAGGCCCTAGGGTGGAGGGGAGGCCGCCGGCATGGGGACGCGATGGGCGGAGGCG
DNA 2: CGCCTCCGCCCATCGCGTCCCCATGCCGGCGGCCTCCCCTCCACCCTAGGGCCTGC
modifications: 5' phosphate on A from labeling
For B8, the binding result in data set [3] is listed as “binds”.

B9: A 5 nt 5' tail (dsDNA)
DNA 1: GCCCAGGTGGCAGGCCCTAGGGTGGAGGGGAGGCCGCCGGCATGGGGACGCGATGGGCGGAGGCG
DNA 2: CGCCTCCGCCCATCGCGTCCCCATGCCGGCGGCCTCCCCTCCACCCTAGGGCCTGCCACC
modifications: 5' phosphate on A from labeling
Regarding B9, in data set [3], the binding result is recorded as “no binding”.
